Target: the molecule itself
Test: cryo-EM structure; FAS1-His6 and FAS2 co-expressed and purified as one complex; 1-2 mg/ml in TBS (50 mM Tris pH 7.4, 150 mM NaCl) on holey gold grids; WT apo or with acetyl-CoA, malonyl-CoA and NADPH; mutants with substrates; D3 symmetrised maps; for H1564A and H740A also symmetry expansion, signal subtraction and focused classification

B1: S. cerevisiae fatty acid synthase FAS2 polypeptide (α-chain), wild type (enzyme)
chain: MKPEVEQELAHILLTELLAYQFASPVRWIETQDVFLKDFNTERVVEIGPSPTLAGMAQRTLKNKYESYDAALSLHREILCYSKDAKEIYYTPDPSELAAKEEPAKEEAPAPTPAASAPAPAAAAPAPVAAAAPAAAAAEIADEPVKASLLLHVLVAHKLKKSLDSIPMSKTIKDLVGGKSTVQNEILGDLGKEFGTTPEKPEETPLEELAETFQDTFSGALGKQSSSLLSRLISSKMPGGFTITVARKYLQTRWGLPSGRQDGVLLVALSNEPAARLGSEADAKAFLDSMAQKYASIVGVDLSSAASASGAAGAGAAAGAAMIDAGALEEITKDHKVLARQQLQVLARYLKMDLDNGERKFLKEKDTVAELQAQLDYLNAELGEFFVNGVATSFSRKKARTFDSSWNWAKQSLLSLYFEIIHGVLKNVDREVVSEAINIMNRSNDALIKFMEYHISNTDETKGENYQLVKTLGEQLIENCKQVLDVDPVYKDVAKPTGPKTAIDKNGNITYSEEPREKVRKLSQYVQEMALGGPITKESQPTIEEDLTRVYKAISAQADKQDISSSTRVEFEKLYSDLMKFLESSKEIDPSQTTQLAGMDVEDALDKDSTKEVASLPNKSTISKTVSSTIPRETIPFLHLRKKTPAGDWKYDRQLSSLFLDGLEKAAFNGVTFKDKYVLITGAGKGSIGAEVLQGLLQGGAKVVVTTSRFSKQVTDYYQSIYAKYGAKGSTLIVVPFNQGSKQDVEALIEFIYDTEKNGGLGWDLDAIIPFAAIPEQGIELEHIDSKSEFAHRIMLTNILRMMGCVKKQKSARGIETRPAQVILPMSPNHGTFGGDGMYSESKLSLETLFNRWHSESWANQLTVCGAIIGWTRGTGLMSANNIIAEGIEKMGVRTFSQKEMAFNLLGLLTPEVVELCQKSPVMADLNGGLQFVPELKEFTAKLRKELVETSEVRKAVSIETALEHKVVNGNSADAAYAQVEIQPRANIQLDFPELKPYKQVKQIAPAELEGLLDLERVIVVTGFAEVGPWGSARTRWEMEAFGEFSLEGCVEMAWIMGFISYHNGNLKGRPYTGWVDSKTKEPVDDKDVKAKYETSILEHSGIRLIEPELFNGYNPEKKEMIQEVIVEEDLEPFEASKETAEQFKHQHGDKVDIFEIPETGEYSVKLLKGATLYIPKALRFDRLVAGQIPTGWNAKTYGISDDIISQVDPITLFVLVSVVEAFIASGITDPYEMYKYVHVSEVGNCSGSGMGGVSALRGMFKDRFKDEPVQNDILQESFINTMSAWVNMLLISSSGPIKTPVGACATSVESVDIGVETILSGKARICIVGGYDDFQEEGSFEFGNMKATSNTLEEFEHGRTPAEMSRPATTTRNGFMEAQGAGIQIIMQADLALKMGVPIYGIVAMAATATDKIGRSVPAPGKGILTTAREHHSSVKYASPNLNMKYRKRQLVTREAQIKDWVENELEALKLEAEEIPSEDQNEFLLERTREIHNEAESQLRAAQQQWGNDFYKRDPRIAPLRGALATYGLTIDDLGVASFHGTSTKANDKNESATINEMMKHLGRSEGNPVIGVFQKFLTGHPKGAAGAWMMNGALQILNSGIIPGNRNADNVDKILEQFEYVLYPSKTLKTDGVRAVSITSFGFGQKGGQAIVVHPDYLYGAITEDRYNEYVAKVSAREKSAYKFFHNGMIYNKLFVSKEHAPYTDELEEDVYLDPLARVSKDKKSGSLTFNSKNIQSKDSYINANTIETAKMIENMTKEKVSNGGVGVDVELITSINVENDTFIERNFTPQEIEYCSAQPSVQSSFAGTWSAKEAVFKSLGVKSLGGGAALKDIEIVRVNKNAPAVELHGNAKKAAEEAGVTDVKVSISHDDLQAVAVAVSTKK
notes: Fatty acid synthase subunit alpha (FAS2 gene product), S. cerevisiae strain BJ2168, gene amplified from genomic DNA into NcoI-digested pET-15b(+); holds the ACP domain (residues 140-302), KR and KS domains; Serine 180 of the ACP domain is called the phosphopantetheine attachment site; No tag is named for FAS2; also called JWL03; holds the ACP domain; source: E. coli BL21, co-expressed with …
binding result: binds
